Target: SH2 domain of Abl1 kinase fused to 434 cI repressor (UniProt P16117)
Test: cell-based or functional assay

ON propagation on this AP combo, against the wt HA4 monobody: 105 fold lower
Substance: HA4 Y84A monobody (from UniProt P0A800 1-91) (designed binder)

From patent US20200216833A1
